Laboratory results as given in patent US20040214763A1 (AVENTIS PHARMA S A, published 2004).
Ends that are not written are not given here.

T1: p38 protein (product of the human gene JTV1) fused to the transactivating domain of GAL4, from library … (yeast; human, UniProt Q13155 1-320, limits assumed)
T1 construct: also called plasmid isolated during the screening of the two-hybrid library; fragment corresponding to the p38 protein
T1 sequence: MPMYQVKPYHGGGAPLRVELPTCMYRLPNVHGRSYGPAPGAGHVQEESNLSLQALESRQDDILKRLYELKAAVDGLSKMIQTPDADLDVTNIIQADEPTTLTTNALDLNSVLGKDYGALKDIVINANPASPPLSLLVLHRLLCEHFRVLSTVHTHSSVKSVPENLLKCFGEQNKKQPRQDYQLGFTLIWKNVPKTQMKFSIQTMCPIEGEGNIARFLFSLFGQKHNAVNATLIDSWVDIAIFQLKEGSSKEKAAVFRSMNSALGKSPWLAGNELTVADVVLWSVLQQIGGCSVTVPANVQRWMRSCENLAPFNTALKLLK

B1: cytoplasmic domain of the APP protein fused to LexA, expressed from pLex9-cAPP (other, UniProt P05067 723-770, looked up)
chain: LKKKQYTSIHHGVVEVDAAVTPEERHLSKMQQNGYENPTYKFFEQMQN
modifications: also: fused to LexA
notes: domain: cytoplasmic domain; Control bait in the two-hybrid specificity test; also called pLex-cAPP; not shown: bacterial repressor LexA as encoded by vector pLex9 (pBTM116)

Key:
[1] = target: p38 protein fused with an N-terminal myc epitope, expressed from pcDNA3-myc-P38 (human) (UniProt Q13155); assay: cell-based or functional assay
[2] = target: T1, p38 protein (product of the human gene …); assay: yeast two-hybrid, b-Gal activity assay in strain L40
Experimental: A sheet of nitrocellulose is pre-placed on the Petri dish containing the separated yeast clones. This sheet is then immersed in liquid nitrogen for 30 seconds in order to rupture the yeasts and thus to release the b-galactosidase activity. After thawing, the sheet of nitrocellulose is placed, colonies facing upwards, in another Petri dish containing a Whatman paper presoaked in 1.5 ml of PBS solution (60 mM Na2HPO4, 40 mM NaH2PO4, 10 mM KCl, 1 mM MgSO4, pH 7) containing 15 μl of X-Gal (5-bromo-4-chloro-3-indolyl-b-D-galactoside) containing 40 mg/ml of N,N-dimethylformamide. The dish is then placed in an incubator at 37° C. The assay is deemed positive when the colonies on the membrane turn blue after 12 hours.
In order to determine the specificity of interaction between the fragment corresponding to the p38 protein and the central region of parkin, we carried out a two-hybrid test for specific interaction with other, non-relevant proteins. To carry out this test, we transformed the L40 strain with the control plasmids plex9-cAPP or pLex9-HaRasVal12 in place of the plasmid pLex9-Parkin (135-290), encoding, respectively, the cytoplasmic domain of APP or the HaRasVal12 protein, which are fused to the DNA-binding domain of LexA and with the plasmid isolated during the screening of the two-hybrid library. […]

| Molecule | proportion of transfected cells exhibiting p38 aggregates [1] | binding result [2] |
| --- | --- | --- |
| human parkin stably overexpressed in the SH-SY5Y-VI clone (from UniProt O60260 1-465) (enzyme) | 8% |  |
| B1 |  | no binding |
